# Reference: publication PMC4297295, “Structural Conservation Despite Huge Sequence Diversity Allows EPCR Binding by the PfEMP1 Family Implicated in Severe Childhood Malaria” (Cell Host & Microbe, 2015)
# T1: endothelial protein C receptor (EPCR), extracellular domain, biotinylated on the N-terminal BAP tag (human, UniProt Q9UNN8 18-210, biotin attached to the N-terminal BAP tag (BirA))
# T1 construct: also called biotinylated recombinant EPCR; ECPR
# T1 sequence: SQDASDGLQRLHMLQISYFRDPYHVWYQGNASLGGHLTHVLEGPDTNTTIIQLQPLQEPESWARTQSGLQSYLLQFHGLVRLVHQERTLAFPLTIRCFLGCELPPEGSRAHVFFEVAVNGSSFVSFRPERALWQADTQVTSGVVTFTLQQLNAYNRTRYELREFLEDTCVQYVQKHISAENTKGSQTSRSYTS
# Key:
# [1] = target: endothelial protein C receptor (EPCR), extracellular domain, biotinylated on the N-terminal BAP tag (human) (UniProt Q9UNN8); assay: SPR; Biacore T200; biotinylated EPCR captured on a CAP chip (Biotin Capture Kit) to 150 RU, fresh for each cycle; two-fold dilution series of each CIDRα1 injected for 240 s, dissociation 300 s; 20 mM HEPES pH 7.5, 150 mM NaCl, 0.005% Tween-20, 25°C; surface without EPCR subtracted; global fit to a 1:1 interaction model
# [2] = target: endothelial protein C receptor with an N-terminal biotin (human) (UniProt Q9UNN8); assay: SPR; Biacore T200; EPCR biotinylated with BirA and coupled to a biotin capture chip to 150 RU; binding partners injected for 240 s, dissociation 300 s; 1:1 interaction model
# [3] = target: T1, endothelial protein C receptor (EPCR), …; assay: SPR; settings: both partners purified
Molecule,Kd [3],koff [3],kon [3],other results
"HB3var03 CIDRα1.4 domain, mutant W669S (domain or fragment)",–,–,–,Kd [1]: 11 nM; koff [1]: 0.000449 s⁻¹; kon [1]: 40100 M⁻¹ s⁻¹
HB3var03 CIDRα1.4 F656Y (domain or fragment),–,–,–,Kd [2]: < 5 nM; fold reduction of the affinity against wild-type HB3var03 CIDRα1 [2]: 4 fold
HB3var03 CIDRα1.4 F656A (domain or fragment),–,–,–,fold change in the dissociation rate constant against wild-type HB3var03 CIDRα1 [2]: 100 fold; fold effect on the affinity against wild-type HB3var03 CIDRα1 [2]: 35 fold
HB3var03 CIDRα1.4 Q657K (domain or fragment),–,–,–,fold reduction of the affinity against wild-type HB3var03 CIDRα1 [2]: 200 fold
"HB3var03 CIDRα1.4 domain, mutant F655L (domain or fragment)",–,–,–,Kd [1]: 4.3 nM; koff [1]: 0.00063 s⁻¹; kon [1]: 145000 M⁻¹ s⁻¹
HB3var03 CIDRα1.4 F655L (domain or fragment),–,–,–,Kd [2]: < 5 nM
"HB3var03 CIDRα1.4 domain, mutant F651A (domain or fragment)",–,–,–,Kd [1]: 2.5 nM; koff [1]: 0.000394 s⁻¹; kon [1]: 160000 M⁻¹ s⁻¹
"HB3var03 CIDRα1.4 domain, mutant F656V (domain or fragment)",–,–,–,Kd [1]: 1.5 nM; koff [1]: 0.000223 s⁻¹; kon [1]: 145000 M⁻¹ s⁻¹
"HB3var03 CIDRα1.4 domain, mutant F656Y (domain or fragment)",–,–,–,Kd [1]: 1.9 nM; koff [1]: 0.000379 s⁻¹; kon [1]: 329000 M⁻¹ s⁻¹
HB3var03 CIDRα1.4 F656V (domain or fragment),–,–,–,Kd [2]: < 5 nM; fold reduction of the affinity against wild-type HB3var03 CIDRα1 [2]: 4 fold
"HB3var03 CIDRα1.4 domain, mutant V658A (domain or fragment)",–,–,–,Kd [1]: 37 nM; koff [1]: 0.000719 s⁻¹; kon [1]: 19400 M⁻¹ s⁻¹
HB3var03 CIDRα1.4 F655Y (domain or fragment),–,–,–,Kd [2]: < 5 nM
"HB3var03 CIDRα1.4 domain, mutant F655Y (domain or fragment)",–,–,–,Kd [1]: 0.5 nM; koff [1]: 0.000572 s⁻¹; kon [1]: 1.1e+06 M⁻¹ s⁻¹
"HB3var03 CIDRα1.4 domain, mutant Q657K (domain or fragment)",–,–,–,Kd [1]: 72 nM; koff [1]: 0.00499 s⁻¹; kon [1]: 68900 M⁻¹ s⁻¹
"CIDRα1.6a domain of PfEMP1 HB3var02 (domain or fragment, also called CIDRa1.6a HB3var02_HB3; HB3var02 (1.6a)) PECGVQCSGTTCTPKKVIHPNCKDKETYEPGDAKTTDITVLYSGDEEGDIAQKLQDFCNDKNKENDENYEKWQCYYKSSEINKCQMTRSSKKVPKHRGVMSFYAFFDLWVKNLLIDSINWKNDLTNCINNTNVTDCNKDCNKNCVCFDQWVIKKEEEWKNVNKVFENKNIDLHDYYNKLNKHFEGYFFHVMKELNKEEKWYKLMEDLKEKIDFSKGKADGKNSEGAIKVLFDHLKEIAEKCIHNNSNESCEASTNRTPNPC",1400 nM,0.00139 s⁻¹,975 M⁻¹ s⁻¹,–
"CIDRα1.1 domain of PfEMP1 IT4var19 (domain or fragment, also called CIDRa1.1 IT4var19_IT4; IT4var19 (1.1)) PDCVVVCEGGNCKEKTEDDNCRSEIIKKILKYETPTPIDVLYSGKGQGLITKKLEDFCSSTTNYEGTNVQKWKCYNKNKDYNNCEMNISSYKDATDPNVMLSVECFHSWAKNLLIDTIRWEHQLKNCINNTNVTDCTSKCIKNCECYEKWIKEKEKEWPQVKGVLKKKDETSHNYYDKLKDVFDRFLFEVKGALDQDEKGKWDQFTKDLEKKFGPSVESAGTANSQDAIELLLDHLNDNATTCKDNNSLAVENC",16 nM,0.000364 s⁻¹,22700 M⁻¹ s⁻¹,–
"CIDRα1.6a domain of PfEMP1 PFD1235w (domain or fragment, also called CIDRa1.6a PFD1235w_3D7; PFD1235w (1.6a)) PECGVQCSGTTCTPKKVIHPNCKDKETYEPGDAKTTDITVLYSGDEEGDIAQKLQDFCNDKNKENDENYEKWQCYYKSSEINKCQMTPSSHKVPKHGYIMSFYAFFDLWVKNLLIDSINWKNDLTNCINNTNVTDCKNDCNTNCKCFENWAKTKENEWKKVKTIYKNENGNTNNYYKKLNNHFQGYFFHVMKELNKEEKWYKLMEDLKEKIDSSNLKNGTKDSEGAIKVLFDHLKDIAERCIDNNSKDSC",8.8 nM,6.62e-05 s⁻¹,7550 M⁻¹ s⁻¹,–
"CIDRα1.6b domain GA018_ERS010570 (domain or fragment, also called CIDRa1.6b GA018_ERS010570; GA018 (1.6b)) PYCGLDCVGTECTAKEEIYPDCVYNGEYDPPKDVRPTEINVIDSGNAVNISEKLNDFCTNPTNPNDKIYQKWQCYYKSSKVNKCQMTSLTQTLQKHHYVMTFYIFFDLWVKNLLRDSVKWEIELKDCINNTNVTDCNNKCNKNCVCFDKWVKQKKKEWDSIKKLFKTEKDEMKKYYTNINKNFEFFFFRVMYELNNEEAKWNKLMENLRIKIKSSKRNKRTKDSEGVIKVLFDHLKETATICKDNNTNEACVSSQNATTNPC",15 nM,0.000531 s⁻¹,35100 M⁻¹ s⁻¹,–
"CIDRα1.6b domain GA019_ERS010031 (domain or fragment, also called CIDRa1.6b GA019_ERS010031; GA019 (1.6b)) PYCGLDCVGKTCTAKQEIYPDCVYNGDYEPPNGAETTEITVLYNDNEGDMSKKLSQFCSNENKENIENYQKWKCYYKDRDDIECEMISSSQKDEKHRKVMIFYNFFDLWVKNLLRDSIKWEIELKDCINNTNVTDCKSVCNVNCECFDKWVKQKEKEWDSIKKLLKKKKNVSKKYYTNINKNFEFFFFRVMYELNNEEAKWNKLMENLRTKINSYKKNKRTKDSEGAIKVLFDHLKETATICKDNNTNEACVSSQNATTNPC",8.8 nM,0.000328 s⁻¹,37000 M⁻¹ s⁻¹,–
"CIDRα1.7 domain of PfEMP1 IT4var22 (domain or fragment, also called CIDRa1.7 IT4var22_IT4; IT4var22 (1.7)) PYCGLDCGGKTCTAKQEIYPDCVYNGAYEPPNGAETTEITVLYSADQEGDISNKLSEFCNDENNKNSQKWQCYYVSSENNGCKMEKKNANHTPEVKITKFHNFFEMWVTYLLTETITWKDKLKTCMNNTKTADCIHECNKNCVCFDKWVKQKEDEWNSIKKLFTKEKKMPKQYYGNINIYFESFFFHVMKKLNKEAKWNKLMDELRNKIELSKGNEGTKDLQDAIELLLEYLKEKSTICKDNNTNEACDPTVDPTKNPC",17 nM,0.00105 s⁻¹,61300 M⁻¹ s⁻¹,–
CIDRα1.7 domain 1965-8 (patient isolate 1965) (domain or fragment) PHCGVDCNGKKCTLKSDNDPQCVNKLKYEPPYGVKPTEITVLYSADQEGDISKKLSEFCNDEKKINSKNIETWKCYYKSTYNNACKMDKNSKNHTPEVKITKFHNFFEMWIVYLLTETITWNDKLKTCMNNIKTTDCIDECNTNCVCFDKWVKQKGKEWNSIKKLFIKEQKNPKQNYGNINIYFESFFFHVMDKLNHDEAKWNELMNELKQIIDSSKANTDNKNLQDAIKVLFDHLKEIATICKDNNTNEACEDSKKETQNPC,3.5 nM,0.00021 s⁻¹,59200 M⁻¹ s⁻¹,–
"CIDRα1.8a domain GA026_ERS010178 (domain or fragment, also called CIDRa1.8a GA026_ERS010178; GA026 (1.8a)) PDCVVDCKGAKCEQKMKPDGTCEKPQIYTRPKDVTPKIIKVLFSGDNQEDITEKLSSFCSNPKSKIDRNYQTWKCYYKSGHYNICEMKGSLYKYPEHPNDMLSVECFHLWVKNLLIDTIKWETKLKKCINNTNVTDCDNECNKNCECFENWVEQKKKEWEEVRKVYKDQKESLGIYYKKLENLFDTYYFEVMGALENEEKHGKWNQLTAKLKQIIESHKKNRHSGNSQDAIELLLDHLKETATTCKDNNSNESCDVSKDSKTNPC",48 nM,0.000842 s⁻¹,17700 M⁻¹ s⁻¹,–
"CIDRα1.8a domain of PfEMP1 MAL6P1.316 (domain or fragment, also called CIDRa1.8a MAL6P1.316_3D7; MAL6P1.316 (1.8a)) PACVVECDGGKCEEKKNSDGTCIEAQIYTVVRDETPTPIKVLFSGDHQKDITKKLSSFCKNPESENNRDYQTWQCYYKSSDYNNCEMKGSLYKVEGDPNIIVSHECFHLWVQSLLIDTIKWETKLKKCINNTNVTNCYNKCNKNCECFENWVEQKKKEWENVNDVYKDQKQSLGIYYEKLENLFKSNFFQVMKALEGDEKGKWYQFKDDLKKKFEPSEKNTRTTDSQDAIKLILDHLKDNATTCKDNNSLEEDENC",50 nM,0.000828 s⁻¹,16700 M⁻¹ s⁻¹,–
CIDRα1.8b domain 2053-3 (patient isolate 2053) (domain or fragment) PICGVKCENKSCTDKENDDDCKNKKKYDPPKGVTPIDIPILYSGDKQGDITKKLEDFCYNRTKENEKTYQNWKCYYKDSEFNKCKMESKSGKSTTQEKIISFDEFFYLWVNNLLIDSIMWENDIKHCINNTNVTNCKNKCNENCKCFKNWVKKKEEEWTKVKQILGNRSENLNNYYNKLNSLFKGFFFEVVYKFNNKEEKWNKLTEKLEQKIGSSKGKEGVENPKDAIELLLDHLKENAITCKDNNSLEEDKNCPKIKINPC,4 nM,7.65e-05 s⁻¹,20200 M⁻¹ s⁻¹,–
CIDRα1.8b domain 1702-3 (patient isolate 1702) (domain or fragment) PDCIVVCDYKGCKENKNDENCKSKRTYSLPPDVNSTEIEVLFSGDNQEDIVEKLSSFCKNTNNENGENVEKWECYYESEHNNKCKMTSPKHKDEKRPTVMIFDEFFDFWVTHLIKDTIKWESDINDCINNTNVTDCDSACNENCKCFDEWVEKKEVEWGNVKKVLGNRSENLNIYYNKLNGIFSGFFFGVMHELKKKEAKQGVKAEEAQEAEETQEAQEEEAKWNKLTAKLQEIIDSSKGKADTANSQDAIKPLLEYIKETATTCIDNNSLAVENCPKTKINPC,6 nM,2.28e-05 s⁻¹,3640 M⁻¹ s⁻¹,–
CIDRα1.1 domain 2110-3 (patient isolate 2110) (domain or fragment) CPDCVVECVGGECKQKTDDDKNCRSKIIEEILKGEEPTVIDVLYSGNGQGVITKKLHDFCSSTNKEDDKYYKKWKCYNKNSDYNNCELISSLSTDPNDPNVMLSIKCFDSWARNLLVDALKWEHQLKNCINNTNVTDCKSNCNNNCKCYEEWIKRKGREWKQVKGVIENNDEGSHYYYKNVKNLFYNFLYPVIYKLEKEEKNGKWDQFMEDLKKKIESSETNTHTTDSQDAIELLLDHLKENAITCKDNNSLEEDKNC,32 nM,0.000511 s⁻¹,15700 M⁻¹ s⁻¹,–
"CIDRα1.8b domain GA029_ERS010532 (domain or fragment, also called CIDRa1.8b GA029_ERS010532; GA029 (1.8b)) PDCVVVCERGNCTEKKGDDKCRKKYTYEIPAGMESTKIDILFSGENQEDITEKLRSFCKNTNNENGENIEKWECYYKNEYDNKCKMTSLKREDQKHHDLMSYYEFFDFWVTHLIKDTIKWESDINDCINNTNVTNCNNGCNENCICFEKWVGQKEKEWENVKKVLKNPSENLNNYYNKLNGIFSGFFFGVMHELKKKEAKQGVKVEKAEKSEEAQEAQEEEAKWNKLTAKLEEIIKSHKENTGTGNTQDAIEPLLKYLDENAITCKDNNSLKEDKNCPKTKKNPC",24.2 nM,0.000158 s⁻¹,6550 M⁻¹ s⁻¹,–
